Experimental data: the DeepSol protein solubility set

Test: soluble on expression in E. coli; label from the status in PepcDB or PDB records

**Q.** For “MGSDKIHHHHHHMKVLELKNVSVRYKTGEKTVNAVENVSFHLEKGETLGLVGESGCGKSTLGFSIMRLLPKGTKIDGSIKIEGIDISSLSDEEMRQIRGSKVAMIFQDPMTSLNPILRIEDHFVEMILTHRPELSKEDARELAAKALEDVGINRNRLKDYPFQFSGGMRQRVMIALSIVLNPAVLIADEPTTSLDVIVQAQIMELLEKLTKEHRTAMILITHDMGLVAEAADRIGVMYAGHLVELASKERIFTNPLHPYTVGLLRSIPNTDVNDKELRYIPGSPPDLSNPPEGCRFAPRCEKAMKICWEKEPPEFEIDGTRVKCWLYGGDQNGTD”, which “soluble on expression in E. coli” value is on record?
**A.** not soluble

**Q.** For “MSLKGGYAVVDFKVPNERDNASTTKLEVNFPTDHPLASVMPQPVPGWKAEVTKAKPAKPLESHGKQITEVVTKVTWTADGKGVEPGYFQKFPVSIGALPEDADQLVFKAIQTYSNKEVVRWIEVPQEGQEEPETPAPVLKLSAAEDDAHGASEGHHHHHH”, which “soluble on expression in E. coli” value is on record?
**A.** soluble

**Q.** With “MKFAIFVNTTREKALELARELTAWLDARSIDYVFDPQSAKALGCGKWEEKADLSQHCDAFVALGGDGTLLLASHYSRSKPVVGINVGDLGFLTEFSPDEMWVAMDHLVSGNYSIHTRSQLEATLESGESLTSLNDVIFEKGSAARRLPAFTILLDDEMLGSYRADGIIIATSTGSTAYSMSAGGPIIAPKSNVFVITPICPHMLTVRPIVISDDKTIKISVDSQSGEFPLKMDGIQKKLLAPGEVVTVKKSPHHINLVANEKRNYCEILRKKLLWSHEHPTGELEHHHHHH” as the sequence, how does the “soluble on expression in E. coli” value read?
**A.** not soluble

**Q.** Which “soluble on expression in E. coli” value does the source give for “MGSDKIHHHHHHENLYFQGMWKSISQVLAEQFGAYYFIKHKEKLYSGEMNEIWLINDEVQTVFVKINERSYRSMFRAEADQLALLAKTNSINVPLVYGIGNSQGHSFLLLEALNKSKNKQSSFTIFAEKIAQLHQIQGPDKYGLDFDTWLGPIYQPNDWQTSWAKFFSENRIGWQLQICKEKGLIFGNIDLIVQIVADTLSKHNPKPSILHGNLWIENCIQVDDKIFVCNPACYWGDRECDIAFSSLFEPFPTNFYQRYNEIYPLEEGYLERKLIYQLYYLLNFSYRYYNKKQSYVSLTQKLINQILHKIDK” here?
**A.** soluble

**Q.** Which “soluble on expression in E. coli” value does the source give for “MGSDKIHHHHHHMSVRNFMAYHQLSYTFLNHQKLPLIIQPQAKAEGNIDVLKQFLKEENTLFKEQLLNYGAIILRGFHVNTAEQFLEVIRSSDLGPNYSYDFCPIPRTQIRENIYTSINIHPSFNLALHNEKSYDQDFPSHIFFNCIHAPQTGGDTALADGNKIWFSLPKLLQKKLQSKGILYRRHYYGSGIQYKIIRSIGKNSGCMTWMERFQTDDQNKVEVMLQQMGVQFRWIQGNGLIIEQLLPACRNHPISGKLVWFNQSNHANHYYNGTSDYIKSKINNTFSRFILLHKYFHPYIAFYGDGEPLSKQEADCINSAIQKNTVSTAWQPGDVMIVDNFSCLHGKTPHTGNRLILVGLTKYFD” here?
**A.** not soluble

**Q.** Which “soluble on expression in E. coli” value does the source give for “MAHHHHHHMLMHSSTLGSVTYTGMKRRSNAASFSTYLRYSSKVVAPIVRSSPRANMGFKRFAASIAPSDLPAPSTTCISSMKRMMGVGLSRTSFKTLFRRSSNSPRYFAPAIRAPRSREKMREEERVSGTSPRTICCAMPSTMDVLPTPGSPIKTGLFFVRRDRTRMVRNTSSARPISGSSLPSSACRHMSIAYLDNAS” here?
**A.** not soluble

**Q.** Which “soluble on expression in E. coli” value does the source give for “MKQEFTRIAVKVGSNVLARRDGTLDVTRMSALVDQIAELNKSGVEIILISSGAVASGRSEIHPQKKLDSVDQRQLFSAVGQAKLINRYYELFREHGIAVGQVLTTKENFSTRRHYLNQKNCMTVMLENGVIPIVNENDTISVSELMFTDNDELSGLIASMMDAQALIILSNIDGIYNGSPSDPASAVIREIEHGKDLSNYIQATKSSFGRGGMLTKTNIARKVADEGITVIIANGKRDNILVDLLQQPDDTVCTRFIPSTEAVSSVKKWIAHSEGFAKGEIHINECATDILSSEKAASILPVGITHIEGEFEKDDIVRIMDFLGNQVGVGKANCDSAQAREAMGKHGKKPVVHYDYLYIE” here?
**A.** not soluble

**Q.** With “MSSRIEQIIEEIEEYIDKDCKFQPLSSTKIIVNKEHLDELLRELRMKTPDEIKRYQKIISNRDAILADAKAKADAMIEEAQVQTTELVSEHEIMQQAYAQANEIVTQATAQAQEIIDNATMDANEIRMGAIQYTDDLLANAESIIGHTLDSYTTKYDGLINSLQECYDVVRTNRAELESPTPEEGQEFSGEA” as the sequence, how does the “soluble on expression in E. coli” value read?
**A.** not soluble

**Q.** With “MHHHHHHSSGVDLGTENLYFQSMGFETLVVTSEDGITKIMFNRPKKKNAINTEMYHEIMRALKAASKDDSIITVLTGNGDYYSSGNDLTNFTDIPPGGVEEKAKNNAVLLREFVGCFIDFPKPLIAVVNGPAVGISVTLLGLFDAVYASDRATFHTPFSHLGQSPEGCSSYTFPKIMSPAKATEMLIFGKKLTAGEACAQGLVTEVFPDSTFQKEVWTRLKAFAKLPPNALRISKEVIRKREREKLHAVNAEECNVLQGRWLSDECTNAVVNFLSRKSKL” as the sequence, how does the “soluble on expression in E. coli” value read?
**A.** soluble

**Q.** For “MGSDKIHHHHHHMTFLFFQPSSNIIKPYALMDLDDTLFQTQRKIDAWELPTTEPENLVCATVNKQGEPLSFMSQRQAAFFNWLLASTELIAVTARDRLEIKRVKLLFNSWQVLTHGAVILTSDGEPLSTWQQHMYNALIPLQDKINQLTEWVNSYSKESDRTHNDLKLTPHTDTFIDSELTIYLAIKHTQKDHQALAELATQLPTLIPDFDAHFYVHVNANNLAILPHAVHKRHAVQFLLEQHLDHQRPSFGFGDSLADLPFLQLLDWYGMPNHGQLHTQQ”, which “soluble on expression in E. coli” value is on record?
**A.** not soluble

**Q.** With “GPLGSPQMAQGTLIRVTPEQPTHAVCVLGTLTQLDICSSAPEDCTSFSINASPGVVVDIAHSPPAKKKSTGSSTWPLDPGVEVTLTMKAASGSTGDQKVQISYYGPKTPPVKALLYLTAVEISLCADITRTGKVKPTRAVKDQRTWTWGPCGQGAILLVNCDRDNLESSAMDCEDDEVLDSEDLQDMSLMTLSTKTPKDFFTNHTLVLHVARSEMDKVRVFQATRGKLSSKCSVVLGPKWPSHYLMVPGGKHNMDFYVEALAFPDTDFPGLITLTISLLDTSNLELPEAVVFQDSVVFRVAPWIMTPNTQPPQEVYACSIFENEDFLKSVTTLAMKAKCKLTICPEEENMDDQWMQDEMEIGYIQAPHKTLPVVFDSPRNRGLKEFPIKRVMGPDFGYVTRGPQTGGISGLDSFGNLEVSPPVTVRGKEYPLGRILFGDSCYPSNDSRQMHQALQDFLSAQQVQAPVKLYSDWLSVGHVDEFLSFVPAPDRKGFRLLLASPRSCYKLFQEQQNEGHGEALLFEGIKKKKQQKIKNILSNKTLREHNSFVERCIDWNRELLKRELGLAESDIIDIPQLFKLKEFSKAEAFFPNMVNMLVLGKHLGIPKPFGPVINGRCCLEEKVCSLLEPLGLQCTFINDFFTYHIRHGEVHAGTNVRRKPFSFKWWNMVP” as the sequence, how does the “soluble on expression in E. coli” value read?
**A.** soluble

**Q.** With “MKEVLRVRTTKHTSIVNITQQVDQVVKKSGVREGICVVYTPHTTACVFVNEGADPDVVRDIVYSLEKLIPWNDPSYAHMEGNSAAHIRSAIIGNSRVIPIIDGELALGTWESIFLADFDGPRERKVIVVVLGEKLEHHHHHH” as the sequence, how does the “soluble on expression in E. coli” value read?
**A.** not soluble

**Q.** For “MEAIKDKERKERRDKKLAIANLAAKQKREKKKQQKNGAELAARARKAKAEKAKTSEPPAQGVVTRAAAQKAREAAQAANHQ”, which “soluble on expression in E. coli” value is on record?
**A.** not soluble

**Q.** Which “soluble on expression in E. coli” value does the source give for “MSLDTNNALARFFDSSGYNANVSNPSAYQGQSANYYTGGSLFVRTPIVDAQLVSVTVPSISAGCSGIDMFMGGFSHVSSDQLVKVGKAIIHNAPPFIVNLALQTWAPQLKQNLDNLQAIADKYLNQSVNSCEAAQAAIGGLAAFAAPATKKHVCATLGTQNNAFSDWVQAQHECGAGGKAAGQLANAKNDPALKDITKTNHNVVWSAIMNNAFLSADKHLAQFMMSLSGTYVYDANGNPRYYPSLLTDNNNLVNVLLEGGKADIYQCRNTDPKACITITKPNNLSISQANGIQSQISKQLESILRHIATDQKLTDKQKSFLELTQTPVLKFFMDDLSANQTPDINSYSRMIAVELLNQYLTNMLSIASQSLANTNNSVEDIALITRDIDNAKRFTTGLADKAIETLNQRNQLIESQRKTAQRSQKDIGITTKPTQAYGNEGHHHHHH” here?
**A.** not soluble

**Q.** Which “soluble on expression in E. coli” value does the source give for “MGSDKIHHHHHHMPADSVRPTWSLTDIPYATIEKEKIIGNTDWFYLLAGASFVETLSDLYTRNLVEYYQENVGATTWLRQEWEMEEVQHGHALRRYVLFVWPDFDWERAYQGFVTAYAPCCRTELLGPTHALEMASRCVVETGTASFYTMIQAASPEPVLRQIAAHIRADEVHHYKYFYRIFRQYQAAEKNSRWRIGRELWKRVAEAEQEDSYLAIKNAFEVKNPGEKFFIEDFAAFRKRIGGWVDRYYPFDMAIKMLLKPVALPPMLQRAALPLLSHGARRAILG” here?
**A.** not soluble

**Q.** With “NWLTADGAAGPSGEGGFAAEKDRYHLYVSLACPWAHRTLIMRKLKGLEPFLPVSVVNPLMLENGWTFDDSFPEATGDTLYQHDFLYQLYLHADPHYTGRVTVPVLWDKKQQTIVSNESAEIIRMFNTAFDGLGARAGDYYPPALREQIDELNGWIYDNVNN” as the sequence, how does the “soluble on expression in E. coli” value read?
**A.** not soluble

**Q.** For “MNINLSVPYAAEGPGPTINTLGQVDGEDVVSISSADLDETEGNLNMTTVSVRSGMTLSQVISRWLFTDDTIVPIEQVFPPGQSTEEVEESNRTAFISSESSATIAAMNYLNIPVEVEVAEVLTDSAATGIFEPGDKLLSIDGTAISTPGDAQTIVRSKAPGDEITISYERNDAESQATITLREHPDDSSVALLGISMLSVPSSAIEVDYNLEDIGGPSAGMMFSLAVVDKLSPGALNGGKFVAGTGTIAEDGSVGPIGGIAHKVRAAEDAGAEVFLSPADNCAEAMSAKPQDMTILKVDSLSQAIDQMAAYNEGLEHHHHHH”, which “soluble on expression in E. coli” value is on record?
**A.** soluble

**Q.** With “MGSSHHHHHHSSGLVPRGSHMEEEMMILGVDGGSTKTLAIVFDERSERIMGVGISGPSNFTNAPRETAESNISDAVRKACSEAGTDLDGIGIRVFGLAGIGDSREATELGKDIVRSIVGHADVYSDGLGAYKFANLNDDGVVFAPGTGSVGFIKNGSDPERFGGWGWFIGDEASASWMAKQAILFAEREHDGIAETGFLDVVRRYFGMDLYETVYAISKEKIAKRVVAALAPQVSAMARSGNRYAISIFEESSSYIADLLNAKSRIFGRSGKYSVLGGTMLAGDFYRDMIRKKSSVDVSIYYGYQVAIGDVLIGIEKKGSISVDLRNKMIDQLNSILENKKEDIKKFLFLDSVPTS” as the sequence, how does the “soluble on expression in E. coli” value read?
**A.** soluble

**Q.** Which “soluble on expression in E. coli” value does the source give for “SSQTGEKGKFPDAAGYVGFANLPNQVHRKSVKKGFEFTLMVVGESGLGKSTLINSLFLTDLYPERYIPGAAEKIERTVQIEASTVEIEERGVKLRLTVVDTPGYGDAINSQDCFKTIIQYIDNQFERYLHDESGLNRRHIVDNRVHCCFYFISPFGHGLKPLDVEFMKAIHSKVNIVPVIAKADTLTLKERDRLKRRILDEISEHGIRIYQLPDADSDEDEEFKDFVPNRCIWSSLQFYQMHIIAITFIDIMFVFKKAAHVISTTIIMVKLNIKCQ” here?
**A.** soluble

**Q.** For “MSSTLAKIAEIEAEMARTQKNKATAHHLGLLKARLAKLRRELITPKGGGGGGPGEGFDVAKTGDARIGFVGFPSVGKSTLLSNLAGVYSEVAAYEFTTLTTVPGVIRYKGAKIQLLDLPGIIEGAKDGKGRGRQVIAVARTCNLILIVLDVLKPLGHKKIIENELEGFGIRLNSKPPNIGFKKKDKGGINLTATCPQSELDAETVKSILAEYKIHNADVTLRSDATADDLIDVVEGNRVYIPCIYVLNKIDQISIEELDIIYKVPHCVPISAHHRWNFDDLLEKIWDYLKLVRIYTKPKGQLPDYTSPVVLPYSRTTVEDFCMKIHKNLIKEFKYALVWGLSVKHNPQKVGKDHTLEDEDVIQIVKK”, which “soluble on expression in E. coli” value is on record?
**A.** soluble

**Q.** With “HYNLKASNDAKIMKTLKEARQYEQSAKPTHIQQYFKHLGQMNYQIMTVDQKGHKTFYGEPFREDTLSQNAINNVLNNKDYHGIKDKPFALFVTGFFDNVTDNTVGINFKTKDGSIAVFMRPDIGETFSEFRT” as the sequence, how does the “soluble on expression in E. coli” value read?
**A.** not soluble
